Laboratory results reported in article PMC8605562, “MSMEG_3955 from Mycobacterium smegmatis is a FMN bounded homotrimeric NAD(P)H:Flavin mononucleotide (FMN) oxidoreductase” (BMC Microbiology, 2021).

Biological target: the molecule itself
Assay: native gel or EMSA; NATIVE-PAGE (12% in the methods, 10% in the legend of Fig. 3a) of purified protein loaded without any treatment, 10 ug (Fig. 3a) or 20 ug each of wild type and mutant (Fig. 2a); band at ~115 kDa against ~36 kDa on SDS-PAGE

B1: MSMEG_3955 from Mycobacterium smegmatis, recombinant wild-type protein (enzyme, Mycobacterium smegmatis mc2 155, UniProt A0QZA6 1-334, looked up)
chain: MNTHFPDTETIHAALALAMRAPSIHNSQPWQWRVGERSVHLYADLDRHLTSTDPDSRDLLLSCGAALHHCVIAFAALGWYASVHRLPNPAEPEHLASIELRRQTPTDLDIALAAAIPRRRTDRRHYSAWPVSHSDIAMMGARAARAGVMLRRVESLSRLQDIVAESIARHAADDGYLRELTAWSGKYASTAGVPARSAPKPEPGAPLSSRMFAGAALKQPDTGAGADEGAVVLALGTADDTRMSRLRAGEATSLILLTATAMGLATCPVTEPLEISETRDAVQAEVFGASAFPQMMLRVGWAPVNADPLPPTPRRHVADAVRWLDGSPFEPESE
notes: MSMEG_3955, Mycobacterium smegmatis mc2 155, NADPH-dependent FMN oxidoreductase of the Acg family; gene amplified from genomic DNA with primers from the ATG to the stop codon (~1005 bp amplicon, ~36 kDa protein); tag removal is not described; also called protein MSMEG_3955; homologue of Rv3131; source: E. coli BL21 (DE3), pET-28a, purified (Ni-NTA)
- stoichiometry N: 3
